Assay results taken from publication PMC10286459, “The development of an anti-cancer peptide M1-21 targeting transcription factor FOXM1” (Cell & Bioscience, 2023).
Non-standard residues stand in square brackets, D forms with d. No end group written: not given here.

What was measured:
[1] = molecular target: T1, endogenous FOXM1 protein (human (endogenous in 293T and …, UniProt Q08050 1-763)); assay: cell-based or functional assay
T1 sequence (looked up): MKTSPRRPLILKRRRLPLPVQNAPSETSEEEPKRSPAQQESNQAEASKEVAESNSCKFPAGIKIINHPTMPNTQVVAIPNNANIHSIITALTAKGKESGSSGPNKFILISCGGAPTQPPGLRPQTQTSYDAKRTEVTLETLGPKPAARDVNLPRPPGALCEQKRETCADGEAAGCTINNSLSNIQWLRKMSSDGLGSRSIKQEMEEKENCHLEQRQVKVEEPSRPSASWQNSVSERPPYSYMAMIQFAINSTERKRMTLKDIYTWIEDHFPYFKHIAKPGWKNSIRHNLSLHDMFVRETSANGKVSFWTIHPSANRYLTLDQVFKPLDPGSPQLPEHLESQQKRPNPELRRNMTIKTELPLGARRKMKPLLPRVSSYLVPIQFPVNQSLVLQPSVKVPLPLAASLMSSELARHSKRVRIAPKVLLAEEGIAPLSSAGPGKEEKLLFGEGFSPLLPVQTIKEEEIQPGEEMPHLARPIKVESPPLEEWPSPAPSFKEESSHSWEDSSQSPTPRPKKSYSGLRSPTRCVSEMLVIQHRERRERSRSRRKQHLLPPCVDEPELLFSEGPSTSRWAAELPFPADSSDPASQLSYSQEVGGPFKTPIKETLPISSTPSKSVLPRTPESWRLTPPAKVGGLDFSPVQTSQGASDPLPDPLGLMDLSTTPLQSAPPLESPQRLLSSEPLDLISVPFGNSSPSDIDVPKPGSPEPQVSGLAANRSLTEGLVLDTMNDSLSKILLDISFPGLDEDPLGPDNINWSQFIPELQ

[2] = molecular target: T2, GFP-FOXM1(1-138) (human, UniProt Q08050 1-138); assay: MST
T2 construct: also called GFP-M1(1-138); FOXM1 N-terminal domain
T2 sequence (looked up): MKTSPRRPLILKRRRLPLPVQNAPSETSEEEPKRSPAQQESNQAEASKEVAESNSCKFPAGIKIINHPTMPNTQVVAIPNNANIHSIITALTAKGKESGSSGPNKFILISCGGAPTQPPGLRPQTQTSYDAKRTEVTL

[3] = molecular target: T3, GFP-FOXM1 (human, UniProt Q08050-3 1-801); assay: MST
T3 sequence (looked up): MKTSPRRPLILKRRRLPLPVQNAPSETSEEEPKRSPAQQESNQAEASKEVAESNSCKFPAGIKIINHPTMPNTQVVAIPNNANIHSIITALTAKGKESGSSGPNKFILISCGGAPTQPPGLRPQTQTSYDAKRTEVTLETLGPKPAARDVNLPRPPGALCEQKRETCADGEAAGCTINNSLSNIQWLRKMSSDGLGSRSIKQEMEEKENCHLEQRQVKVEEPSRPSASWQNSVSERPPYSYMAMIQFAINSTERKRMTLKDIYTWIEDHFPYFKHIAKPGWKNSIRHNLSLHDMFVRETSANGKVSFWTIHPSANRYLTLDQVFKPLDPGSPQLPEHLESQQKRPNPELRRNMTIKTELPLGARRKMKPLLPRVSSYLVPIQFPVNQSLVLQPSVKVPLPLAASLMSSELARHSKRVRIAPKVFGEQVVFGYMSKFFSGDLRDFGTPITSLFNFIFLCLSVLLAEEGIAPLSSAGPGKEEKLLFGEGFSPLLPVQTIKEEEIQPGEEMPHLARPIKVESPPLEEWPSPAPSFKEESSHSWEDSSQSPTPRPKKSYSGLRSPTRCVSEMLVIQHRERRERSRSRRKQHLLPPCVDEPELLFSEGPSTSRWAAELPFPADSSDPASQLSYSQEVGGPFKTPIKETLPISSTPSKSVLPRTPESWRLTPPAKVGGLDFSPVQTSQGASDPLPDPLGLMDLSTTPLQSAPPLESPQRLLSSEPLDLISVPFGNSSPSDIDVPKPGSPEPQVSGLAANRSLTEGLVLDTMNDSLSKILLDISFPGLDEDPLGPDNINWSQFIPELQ

[4] = molecular target: T4, GFP-FOXM1(232-332) (human, UniProt Q08050-3 232-332); assay: MST
T4 construct: also called GFP-M1(232–332); FOXM1 DBD
T4 sequence (looked up): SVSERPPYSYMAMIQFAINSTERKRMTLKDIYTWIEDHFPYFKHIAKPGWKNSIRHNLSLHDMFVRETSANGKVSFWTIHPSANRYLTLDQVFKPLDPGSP

[5] = molecular target: T5, GFP-FOXM1(688-748) (human); assay: MST
T5 construct: also called GFP-M1(688–748); FOXM1 C-terminus
T5 sequence (Q08050 688-748, looked up): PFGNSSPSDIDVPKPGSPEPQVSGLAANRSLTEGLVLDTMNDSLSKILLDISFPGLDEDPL

B1: M1-21 (peptide)
chain: [dQ][dT][dQ][dP][dR][dL]G[dP][dP][dQ][dT][dP][dA]GG[dC][dS][dI][dL][dI][dF]
modifications: not fully specified; also: retro-inverso, chain direction relative to parent not given here
IC50 of cell viability, MDA-MB-231 cells, 48 h (trypan blue) [1]: 33.8 µM | Kd [2]: 6.27 µM | Kd [3]: 12.5 µM | Kd [4]: 5.71 µM | Kd [5]: 1.79 µM
